This note sets out measurements from the nanobody polyreactivity screen of Harvey et al. (2022).

This data set is described as follows: yeast display, Sf9 membrane polyspecificity reagent, FACS + sequencing; frameworks hold sequencing errors. Summed up:
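Nanobodies came from a synthetic yeast display library in Saccharomyces cerevisiae BJ5465, induced with galactose for 36–48 hours and stained for 1 hour at 4 °C with 10% biotinylated, detergent-solubilized Sf9 membrane reagent. Cells were enriched on streptavidin microbeads and then FACS-sorted, with low and high (top ~1%) gates set on anti-HA fluorescence for expression and streptavidin fluorescence for reagent binding. Each polyreactivity label reflects the gate a clone came from. Genes were amplified by colony PCR, sequenced by MiSeq 2 × 250 and filtered by CDR length.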
For “QVQLVESGGGLVQAGGSLRLSCAASGFIFSKNAMGWSRQAPGKERELVAAISYSGGSTYYADSVKGRFTISRDNAKNTVYLQMNSLKPEDTAVNYCAAGGIYAPSSEYDSWGQGTQVTVSS”, the “polyreactivity (PSR sort gate)” value is on record as “low polyreactivity”.

Regarding “QVQLVESGGGLVQAGGSLRLTCAASGFTIAWNAMGWYRPSPGKERELVAAISAGGGSTYYADSVKGRFTISRDNAKNTVYLQMNSLKPEDTAVYYCAARRTFKYGSYAYYYWGQGTQVTVSS”, the “polyreactivity (PSR sort gate)” value is on record as “high polyreactivity”. Turning to “QVQLVESGVGLVQAGGSLSLSCAASGRTFAYNAMGWYRQAAGKERELVAAINGDGGSTYYADSVKGRFTISRDNAMNTDYLQMISLKPEDTAVYYCAADLKYDGAYDYWGQGTQVTVSS”, the “polyreactivity (PSR sort gate)” value is on record as “high polyreactivity”. With “QVQLVESGGGLVQAGGSLRLSCAASGGTFGQYAMGWYRLAPGKERELVAAITSSGGRKYYADSVKGRFTISRDNAKNTVYLQMNSLKPEDTAVYYCAADVQSRYVGEGDYWGQGTQVTVSS” the entry was “high polyreactivity”; with “QVQLVESGGGLVQAGGSLRFSCPASGSIFPAYARGWYRQAPGKERELVAAITRGGSTDYADSVKGRFTISRDNAKNTVYLQMNSLKPEDTAVYYCAKRGYYYYHYVSGKPEDYWGQGTQVTVSS”, “low polyreactivity”. With “QVQLVESGGGLVQAGGSLRLSCASSGSTFYHYAMVWYRQAPGKERELVAAISWSGGSTYYADSVKGRFTISRDNAKNTVYLQMNSLKPEDTAVYYCAARGRARQRTSFEYWGQGTQVTVSS” the entry was “high polyreactivity”; with “QVQLVESGGGLVQAGGSVRLSCAASGSIFGWYAMGWYRQGPGKEREWVATITDRGGRTYYADSVKGRFTISRDNAKNTVYLQMNSLKPEDTAVYYCAADDCPFEAEYDSWGQGTQVTVSS”, “low polyreactivity”; with “QVQLVESGGGLVQAGGSLRLSCAASGSILWQYAMGWSRQAPGKERELVAAITYSGASTHYADSVKGRFTISRDNAKNTVYLQMNRLKPEDTAVYYCAAGYWYRYAALRYDHWGQGTQVTVSS”, “low polyreactivity”. Consider “QVQLVESGGGLVQAGGSLRLSCAASGRTFFYYAMGWYRQSPGKERELVATITGIGGSTYADSVKGRFTISRDNAKNTVYLQMNSLKPEDTAVYYCNAERGVYWGRYPYKYDYWGQGTQVTVSS”, for which the “polyreactivity (PSR sort gate)” value is given as “low polyreactivity”.

As for “QVQLVESGGGIVQAGGSLRISCAASRRTYFFNDMGWYRQAPGKERELVAAIGWSTVTTYYADSVKGRFTISRDNAKYTVYFQMISLKPEDTAVYYCAADADGWYSPYDYWGQGSQVTVSS”, the “polyreactivity (PSR sort gate)” value is “high polyreactivity”.

Regarding “QVQLVESGGCLVQARGSLRLSCASSGFIFQAYAIGWYRHRPGKERELVASISYSGSRTYYADSVKGRFTISRDNAKNTVYLQMNSLKPADTAVYYCAAGPRYWYPWFGRDYEYWGQGTQVTVSS”, the “polyreactivity (PSR sort gate)” value is listed as “high polyreactivity”. Turning to “QVQLVESGGGLVQAGGSLRLSCAASGFIWSYVMGWYRQAPGKERQLVAAISRSGGRTYYADSVKGRFTISRDNEKNTVYLQMNSLKPEDTAVYYCAKDGGWSRLHYNYWGQGTQVTVSS”, the “polyreactivity (PSR sort gate)” value is recorded as “high polyreactivity”. Regarding “PVQLVESGGGLVQAGGSLRLSCDAYGSIFAYNAMGWYRQAPGKERELVAAISVSDGITYYADSVKGRFTISRDNAKNTVYLQMISLKPEDTAVYYCPARTRGPSRAYDYWGQGTQGTVSS”, the “polyreactivity (PSR sort gate)” value is “low polyreactivity”. In the case of “QVQLVESGVGLDQAGGSLRLSCAASGSIIWYYAMGWYRQAPGKERELVAAITVSGGSTYYADSVKGRFTISRDNAKNTVYLEMNTLKPEDTAVYYCAALYISLSGDEYDYWGQGTQVTVSS”, the “polyreactivity (PSR sort gate)” value is “low polyreactivity”. With “QVQLVESGGGLVQAGGSLRLSCAASGRTFYIYAMGWYRQAPGKERELVADITSGGSTYYADSVKGRFTISRDNAKNTVYLQMNSLKPDDTAVYYCAADWVTFYSYTEYDYWGQGSQVTVSS” the entry was “low polyreactivity”; with “QVQLVESGGGLVQAGGSLRISCAASGSIFVHYAMGWYIPAPGKERELVAAITTSGGSTYYADSVKGRFTISRDNAKNTVYLQMNSLKPEDTAVYYCTARAVRYPFTGNYWGQGTQVTVSS”, “high polyreactivity”; with “QVQLEESGGGLVQAGGSLRLSCAASGSTFSYYAMGWYRQAPGKERELVAAITYSVGSTYYADSVKGRFTISRDNAKNTVYLQMNSLKPEDTAVYYCNKRYYYSRANYPYDYWGQGTQVTVSS”, “low polyreactivity”. With “QVQLEESGGGLVQAGGSLRLSCAASGYTFSFYAMGWYRQAPGKERELVAAISRSGGSTYYADSVKGRFTISRDNAKNTVYLQMNSLKPEDTAVYYCAARWPGAYHEYGYWGQGTQVTVSS”, the “polyreactivity (PSR sort gate)” value is listed as “high polyreactivity”. For the sequence “QVQLVESGGGLVQAGGSLRLSCAASGGTFYNYAMGWYRQAPGKERELVAAISTSGTSTYYADSVKGRFTISRDNAKNTVYLQMNSLKPEDTAVYYCAARGLRVSSRGYYWGQGTQVTVSS”, the “polyreactivity (PSR sort gate)” value was “high polyreactivity”. On to “QVQLVESGGGLVQAGGSLRLICAASGRIIRYYAMGWYRQAPGKERELVAITSSGGRTYYADSVKGRFSISRDNAKNTVYLQMNSLKPEDTAVYYCAVDSHCPGRGERFIRLDYWGQGTQVTVSS”, for which the “polyreactivity (PSR sort gate)” value is “low polyreactivity”. As to “QVHLVESGGGLVQAGGSLRLSCAASGFIFSLYAMGWYRQAPGKERELVAAISKRGGSTNYADSVKGRFTISRDNAKNTVYLQMNSLKPEDTAVYYWAKARPGFLYDHWGQGTQVTVSS”, the “polyreactivity (PSR sort gate)” value is reported as “high polyreactivity”. “QVQLQESGGGLVQAGGSLRMSCAASGNIFDADIMGWYRQAPGKERELVASITDGRRTNYADSVKGRYTISRDSEKNTVYLQMNSLKPEDTAVYYCAAIAYPVVPTYFDYDSDYFHWGQGTQVTVIS”: the “polyreactivity (PSR sort gate)” value is given as “high polyreactivity”. With “QVQLVESGGGLVQAGGSLRLSCAASGRTFAWYAMGWYRQAPGKERELVAAISSSGGTTYYADSVKGRFTISRDNAKNTVYLQMNSLKPEDTAVYYCAARPGFWEYWGWWYDRYEYWGQGTQVTVSS” the entry was “low polyreactivity”. With “QVQLVESGGGLVQAGGSLRLSCAASGSILYVYDMGWYRQAPGNERELVATITGRVVSTNYADSVKGRFTISRDNAKNTVYLQMNSLKPEDTAVYYCAARTRRRRGEYDYWGQGTQVTVSS” the entry was “high polyreactivity”; with “QVQLVESGGGLVQAGGSLRLSCAASGRIFGDNAMGWYRQAPGKERELVAGIRWRADRTYYADSVKWRFTISRDNAKNTVYLQMNSLKPEDTAVYYCNVGSFTGHSYGFGYWGQGTQVTVSS”, “low polyreactivity”. With “QVQIVESGGGLVQAGGSLRLSCAASGIIFYYYAMGWYRQAPGKERELVAAITKSGGSTYYADSVKGRFTISRDNAKNTVYLQMNSLKPEDTAVYYCAAEYSYYPLVGLDYWGQGTQVTVSS” the entry was “low polyreactivity”.

As to “QVQLVESGGGLVQAGGSLRLSCAASGRTFVGNAMGWYRQAPGKERELVATITRRGGSTYYADSVKGRFTISRDNAKNTVYLQMNSLKPEDTAVYYCAAGSQPGRKYYYWGQGTQVTVSS”, the “polyreactivity (PSR sort gate)” value is on record as “high polyreactivity”. As to “QVQLVESGGGLVQAGGSLRLSCAASGSIFDSYAMGWYRQAPGKERELVAAISRSGSRTYYADSVKGRFTISRDNAKNTVYLQMNSLKPEDTAVYYCAAGLSGYSRKIYYWGQGTQVTVSS”, the “polyreactivity (PSR sort gate)” value is “high polyreactivity”. Consider “QVKLVESGGGLVQAGGRLRLSCAASGFTFPSNAMVWYRHAPGKEREMVAAISSTDSTNYADSVMGRFTISRDNAKNTVYLQMNSLNPEDTAVYYCAKRYPRYRYNTRGNDYWGQGTQVTVSS”, for which the “polyreactivity (PSR sort gate)” value is on record as “low polyreactivity”. Take “QVQLVESGGGLVQAGGSLRLSCAASGRTSGVYSMGWYRQAPGKERELVAAISRSGDSTYYADSVKGRFTISRDNAKNTVYLQMNSLKPEDTAVYYCATTFKRSMYWGQGTQVTVSS”: the “polyreactivity (PSR sort gate)” value is “high polyreactivity”.

As for “QVQLVESGGGLVQAGGSLRLSCAASGSIFFARYAMGWYRQAPGKERELVAAITRATSTTYADSVKGRFTISRDNAKNTVYLQMNSLKPEDTAVYYCAATKIGGGSFRPYYYWGQGTQVTVSS”, the “polyreactivity (PSR sort gate)” value is on record as “high polyreactivity”. With “QVQLVESGGGLVQAGGSLRLSCAASGIIFGKYDMGWYRQAPGKERELVAAITSGTSTNYADSVKGRFTISRDNAKNTVYLQMNSLKPEDTAVYYCAADVYLYYPYFGHRRYNYWGQGTQVTVSS” the entry was “high polyreactivity”; with “QVQLVESGGGLVQAGGSLRLSCAASGSTFKRNARGWYRQAPGKERELVASISKRGGSTYYADSVKGRFTISRDNAKNTVYLQMNSLIPEDTAVYYCAKTWQNGDRNTIGSVYAYDYWGQGTQVTVSS”, “high polyreactivity”; with “QVQLVESGGGLVQAGGSLRLSCAASGFTFGWYAMGWYRQAPGKERELVASISWSGSTTYYADSVKGRFTISRDNAKNTVYLQMNSLKPEDTAVYYCNARRSYVRNDFDYWGQGTQVTVSS”, “high polyreactivity”. Take “QVQLVESGGGLVQAGGSLRLSCAPSGFTFVYYAMGWYRQAPGKERELVASISGGGRTYYADSVKGRFTISRDNAKNTVYLQMNSLKPEDTAVYYCAAEQYIRPYYRWVWVSYGYWGQGSQVTVSS”: the “polyreactivity (PSR sort gate)” value is on record as “high polyreactivity”. With “QVQLVESGGGLVQAGGSLRLSCAASGSTFIANAMGWYSQAPGKERELVAGITRGGSTYYADSVKGRFTISRDNAKHTVYLQMNSLNPEDTAVYYCATDLRSYYYQWTYYHWGQATQVTVSS” the entry was “low polyreactivity”; with “QVQLVQSGGGLVQAGGSLRLSCAASGYTIYLKAMGWNRQAPGKERELVAAITGSGDDTYYADSVKGRFTISRDNAKNTVYLQMKIMIPEDTAVYYCAARPYYTSSYKDYEYWGQGTQVTVSS”, “high polyreactivity”. With “QVQLVESGGGLVQAGGSLRLTCAASGSTFRYYDMGWYRQAPGKERELVAAITTSGDDTYYADSVKRRFTISRDNAKNSVYLPMNSLKPEDTAVYYCAADGYGGHKYELESWGQGTQVTVSS” the entry was “low polyreactivity”. With “QVQLQESGGGLVQAGGSLLSCAASGTISYYREMGWYRQSPGKERELVAGIGVGTITYYADSVKGRFTISRDNAKNTVYLQMNSLKPEDTAVYYCAAHIDGNDSNAYWGQGTQVTVSS” the entry was “low polyreactivity”; with “QVQLVESGGGLGQAGGSLRLSCAASGSLITQNALGWYRLAPGKEWELVADISRGSTYSADSVKGRFTISRDNAKNTVYLQLTSLKPEDTALYYSAADDIAHPSFVSTVDVGMDYWGQGPQVTVSS”, “low polyreactivity”.
